{
  "source": "paper doi:10.1101/784462",
  "about": "“Rv3722c governs aspartate-dependent nitrogen metabolism in Mycobacterium tuberculosis” (bioRxiv, 2019)",
  "proteins": {"B1": {"name": "Rv3722c (aspartate aminotransferase of Mycobacterium tuberculosis) (enzyme)", "chain": "SFDSLSPQELAALHARHQQDYAALQGMKLALDLTRGKPSAEQLDLSNQLLSLPGDDYRDPEGTDTRNYGGQHGLPGLRAIFAELLGIAVPNLIAGNNSSLELMHDIVAFSMLYGGVDSPRPWIQEQDGIKFLCPVPGYDRHFAITETMGIEMIPIPMLQDGPDVDLIEELVAVDPAIKGMWTVPVFGNPSGVTYSWETVRRLVQMRTAAPDFRLFWDNAYAVHTLTLDFPRQVDVLGLAAKAGNPNRPYVFASTSKITFAGGGVSFFGGSLGNIAWYLQYAGKKSIGPDKVNQLRHLRFFGDADGVRLHMLRHQQILAPKFALVAEVLDQRLSESKIASWTEPKGGYFISLDVLPGTARRTVALAKDVGIAVTEAGASFPYRKDPDDKNIRIAPSFPSVPDLRNAVDGLATCALLAATETLLNQGLASSAPNVR", "notes": "also called AspAT; not shown: His6, C-terminal, cleaved"}},
  "biological_target": "the molecule itself",
  "assay": "crystal structure; Rv3722c (~40 mg/mL) co-crystallised with 5 mM L-glutamic acid (PDB 6U78) or 10 mM L-kynurenine (PDB 6U7A), sitting drop vapor diffusion at 17 °C",
  "data": [
    {"protein": "B1", "values": [
      {"measurement": "binding result", "result": "binds"}
    ]}
  ]
}
